# According to article PMC6004266:
# Molecular target: Alternative Complex III from Flavobacterium johnsoniae (Flavobacterium johnsoniae (endogenous, ATCC 17061 strain UW101))
# Assay: cryo-EM structure
substance,measurement,value
aa3-type cytochrome c oxidase from Flavobacterium johnsoniae (complex),stoichiometry N (ACIII:cyt aa3),1
